# Results: the supplement of paper PMC9112550, “Optimization of the antimicrobial peptide Bac7 by deep mutational scanning” (BMC Biology, 2022)
# Test system: Escherichia coli TOP10
# Test: shrunken log2 fold change of peptide-encoding DNA abundance (4.5 h post-induction vs induction); higher = less antimicrobial activity (less host growth inhibition)
# Conditions: time post-induction: 4.5 h; library: site-saturation at positions 5, 18, 19, 20
# 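Also: peptides expressed intracellularly from a pBAD plasmid library in pooled LB shake-flask culture, induced with 0.3% L-arabinose, DNA abundance read by NGS, three biological replicates, DESeq2 with apeglm shrinkage.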
row,Sequence,shrunken log2 fold change
1,RRIRHRPPRLPRPRPRPYWNPRP,-0.98
2,RRIRFRPPRLPRPRPRPWKYPRP,-0.411
3,RRIRQRPPRLPRPRPRPNKHPRP,-0.622
4,RRIRLRPPRLPRPRPRPMRYPRP,0.0322
5,RRIRCRPPRLPRPRPRPGVFPRP,-0.00263
6,RRIRWRPPRLPRPRPRPKYFPRP,-0.302
7,RRIRSRPPRLPRPRPRPGCAPRP,0.46
8,RRIRPRPPRLPRPRPRPENMPRP,-0.395
9,RRIRMRPPRLPRPRPRPVALPRP,0.711
10,RRIRLRPPRLPRPRPRPEDDPRP,0.0572
11,RRIRDRPPRLPRPRPRPARHPRP,0.368
12,RRIRVRPPRLPRPRPRPGGDPRP,0.0318
13,RRIRQRPPRLPRPRPRPAMWPRP,0.579
14,RRIRWRPPRLPRPRPRPMTFPRP,-0.108
15,RRIRERPPRLPRPRPRPDNEPRP,-0.0338
16,RRIRKRPPRLPRPRPRPMPIPRP,0.0778
17,RRIRERPPRLPRPRPRPNFDPRP,-0.145
18,RRIRYRPPRLPRPRPRPKSTPRP,-0.634
19,RRIRFRPPRLPRPRPRPLEIPRP,-0.0193
20,RRIRDRPPRLPRPRPRPGIFPRP,0.0908
21,RRIRDRPPRLPRPRPRPCYTPRP,-0.295
22,RRIRWRPPRLPRPRPRPFVAPRP,0.292
23,RRIRQRPPRLPRPRPRPIIQPRP,-0.248

row,Sequence,shrunken log2 fold change
1,RRIRMRPPRLPRPRPRPINQPRP,0.257
2,RRIRARPPRLPRPRPRPGRSPRP,0.206
3,RRIRMRPPRLPRPRPRPIFNPRP,-0.257
4,RRIRLRPPRLPRPRPRPCNHPRP,-0.0991
5,RRIRPRPPRLPRPRPRPIKQPRP,0.109
6,RRIRHRPPRLPRPRPRPGRYPRP,-0.017
7,RRIRDRPPRLPRPRPRPTIGPRP,-0.0292
8,RRIRWRPPRLPRPRPRPIKMPRP,0.212
9,RRIRNRPPRLPRPRPRPVVMPRP,0.00659
10,RRIRQRPPRLPRPRPRPSEMPRP,0.0648
11,RRIRTRPPRLPRPRPRPQNNPRP,-0.716
12,RRIRCRPPRLPRPRPRPGQEPRP,0.094
13,RRIRTRPPRLPRPRPRPIFKPRP,-0.128
14,RRIRMRPPRLPRPRPRPHQIPRP,-0.00201
15,RRIRVRPPRLPRPRPRPLTTPRP,-0.219
16,RRIRSRPPRLPRPRPRPEPQPRP,0.397
17,RRIRDRPPRLPRPRPRPLALPRP,0.0811
18,RRIRRRPPRLPRPRPRPDIRPRP,-0.294
19,RRIRVRPPRLPRPRPRPRHPPRP,0.278
20,RRIRHRPPRLPRPRPRPMNSPRP,-0.214
21,RRIRCRPPRLPRPRPRPNMPPRP,-0.627
22,RRIRERPPRLPRPRPRPMVLPRP,0.104
23,RRIRARPPRLPRPRPRPEQMPRP,1.06

row,Sequence,shrunken log2 fold change
1,RRIRKRPPRLPRPRPRPPETPRP,0.651
2,RRIRRRPPRLPRPRPRPSRQPRP,0.352
3,RRIRVRPPRLPRPRPRPCPKPRP,-0.0457
4,RRIRTRPPRLPRPRPRPTNWPRP,0.155
5,RRIRIRPPRLPRPRPRPSLVPRP,0.0916
6,RRIRHRPPRLPRPRPRPEPCPRP,0.0696
7,RRIRYRPPRLPRPRPRPAIDPRP,-0.0997
8,RRIRDRPPRLPRPRPRPIGGPRP,0.0266
9,RRIRTRPPRLPRPRPRPENEPRP,0.138
10,RRIRRRPPRLPRPRPRPQAFPRP,0.0653
11,RRIRQRPPRLPRPRPRPYVWPRP,-0.00378
12,RRIRHRPPRLPRPRPRPKDFPRP,-0.0494
13,RRIRLRPPRLPRPRPRPQREPRP,0.144
14,RRIRPRPPRLPRPRPRPINRPRP,-0.11
15,RRIRSRPPRLPRPRPRPTSLPRP,0.074
16,RRIRRRPPRLPRPRPRPKAWPRP,0.0767
17,RRIRNRPPRLPRPRPRPIKDPRP,-0.4
18,RRIRQRPPRLPRPRPRPPEQPRP,0.00242
19,RRIRHRPPRLPRPRPRPEVVPRP,-0.018
20,RRIRGRPPRLPRPRPRPEWFPRP,0.683
21,RRIRGRPPRLPRPRPRPKDVPRP,-0.0336
22,RRIRCRPPRLPRPRPRPFCCPRP,-0.175
23,RRIRERPPRLPRPRPRPVTRPRP,-0.0559

row,Sequence,shrunken log2 fold change
1,RRIRWRPPRLPRPRPRPWQVPRP,0.172
2,RRIRLRPPRLPRPRPRPCHCPRP,-0.0469
3,RRIRKRPPRLPRPRPRPLCFPRP,0.188
4,RRIRMRPPRLPRPRPRPVVRPRP,0.0837
5,RRIRTRPPRLPRPRPRPIVAPRP,2.95
6,RRIRYRPPRLPRPRPRPCKQPRP,0.00515
7,RRIRCRPPRLPRPRPRPCSCPRP,-1.33
8,RRIRHRPPRLPRPRPRPPQEPRP,-0.0115
9,RRIRFRPPRLPRPRPRPNKSPRP,-0.67
10,RRIRCRPPRLPRPRPRPYVAPRP,-0.858
11,RRIRKRPPRLPRPRPRPTEDPRP,1.03
12,RRIRHRPPRLPRPRPRPPWTPRP,-0.131
13,RRIRWRPPRLPRPRPRPWLHPRP,-0.0248
14,RRIRARPPRLPRPRPRPIQSPRP,-0.035
15,RRIRARPPRLPRPRPRPFQNPRP,-0.124
16,RRIRGRPPRLPRPRPRPKVSPRP,0.787
17,RRIRLRPPRLPRPRPRPNPVPRP,0.0363
18,RRIRERPPRLPRPRPRPEADPRP,0.0032
19,RRIRMRPPRLPRPRPRPVGNPRP,0.0176
20,RRIRWRPPRLPRPRPRPPTQPRP,0.312
21,RRIRDRPPRLPRPRPRPCIKPRP,0.0183
22,RRIRKRPPRLPRPRPRPDLEPRP,0.0158
